{"source": "paper PMC10099716", "about": "“A De Novo Sequence Variant in Barrier-to-Autointegration Factor Is Associated with Dominant Motor Neuronopathy”", "key": {"[1]": {"molecular_target": "Barrier-to-autointegration factor Gly16Arg variant (BAF Gly16Arg), all cysteines replaced with alanines (human) (UniProt O75531)", "assay": "SEC; gel filtration of purified, refolded BAF on a Superdex 200 pg HiLoad 16/600 column; elution profiles of WT and Gly16Arg compared"}, "[2]": {"molecular_target": "Barrier-to-autointegration factor Gly16Arg variant (BAF Gly16Arg), all cysteines replaced with alanines (human) (UniProt O75531)", "assay": "ITC; VP-ITC; 10-20 µM monomeric BAF (WT or Gly16Arg) in the cell, 100 µM lamin A/C IgFold domain in the syringe; 50 mM Hepes pH 7.4, 150 mM NaCl; 288 K; duplicate, mean values; stoichiometry set to 0.5 (one IgFold domain for each BAF dimer assumed)"}, "[3]": {"molecular_target": "Barrier-to-autointegration factor wild type (BAF WT), all cysteines replaced with alanines (human) (UniProt O75531)", "assay": "ITC; VP-ITC; 10-20 µM monomeric BAF (WT or Gly16Arg) in the cell, 100 µM lamin A/C IgFold domain in the syringe; 50 mM Hepes pH 7.4, 150 mM NaCl; 288 K; duplicate, mean values; stoichiometry set to 0.5 (one IgFold domain for each BAF dimer assumed)"}, "[4]": {"molecular_target": "T1, BAF WT (Cys-to-Ala background) (Homo sapiens, UniProt O75531 1-89, C67A;C77A;C80A;C85A)", "T1 sequence": "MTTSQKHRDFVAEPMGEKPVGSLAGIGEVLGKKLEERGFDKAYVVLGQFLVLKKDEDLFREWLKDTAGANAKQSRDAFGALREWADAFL", "assay": "ITC; unphosphorylated; 288 K; mean of 2; ITC: 50 mM Hepes pH 7.4, 150 mM NaCl, 288 K; 10-20 uM BAF monomer in cell, 31-33 uM dsDNA in syringe", "details": "protein: recombinant; tags: His8-TEV, cleaved; chain copies: 2"}, "[5]": {"molecular_target": "T2, BAF Gly16Arg (Cys-to-Ala background) (Homo sapiens, UniProt O75531 1-89, G16R;C67A;C77A;C80A;C85A)", "T2 sequence": "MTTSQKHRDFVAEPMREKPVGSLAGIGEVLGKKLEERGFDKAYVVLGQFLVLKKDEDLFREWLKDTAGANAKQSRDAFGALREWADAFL", "assay": "ITC; unphosphorylated; 288 K; mean of 2; ITC: 50 mM Hepes pH 7.4, 150 mM NaCl, 288 K; 10-20 uM BAF monomer in cell, 31-33 uM dsDNA in syringe", "details": "protein: recombinant; tags: His8-TEV, cleaved; chain copies: 2"}}}
{"molecule": "Barrier-to-autointegration factor Gly16Arg variant (BAF Gly16Arg), all cysteines replaced with alanines (from UniProt O75531 1-89) (natural protein)", "values": [{"measurement": "stoichiometry N", "setting": "[1]", "result": 2}]}
{"molecule": "lamin A/C IgFold domain (human lamin A/C residues 411 to 566) (from UniProt P02545 411-566) (domain or fragment)", "values": [{"measurement": "Kd", "setting": "[2]", "result": 9000, "unit": "nM"}, {"measurement": "Kd", "setting": "[3]", "result": 2700, "unit": "nM"}]}
{"molecule": "22-nt dsDNA (dsDNA) DNA 1: CTAGGGTTAGGGTTAGGGTTAG DNA 2: CTAACCCTAACCCTAACCCTAG", "values": [{"measurement": "Kd", "setting": "[4]", "result": "117 ± 58", "unit": "nM"}, {"measurement": "Kd", "setting": "[5]", "result": "16.3 ± 5.7", "unit": "nM"}]}
